Results reported in US10370438B2, “Histamine-releasing factor (HRF), HRF-receptor and methods of modulating inflammation” (LA JOLLA INSTITUTE FOR ALLERGY AND IMMUNOLOGY, priority 2010, dated 2019).
Blank lines part the entries; values can stand above or below the molecule they belong to.

Legend:
C57BL/6 mice = test: OVA-induced mast cell-dependent airway inflammation model; format: in vivo, mouse; settings: intranasal pretreatment before each OVA challenge
Experimental: Mice were sensitized with OVA (10 μg in 0.1 ml saline) at days 0, 7, 14, 21, 28, and 35. Sensitized mice were challenged with OVA (20 μg in 20 μl saline) at days 40, 43 and 46. Some mice were pretreated with GST, GST-N19 (400 μg in PBS), or N19 peptide (40 μg in 2% DMSO-containing PBS) 15 minutes before OVA challenge. Twenty-four hours after the last challenge, lung function in response to methacholine was tested using FlexiVent system (SCIREQ Scientific Respiratory Equipment). Mice were sacrificed and plasma, BAL fluids, and lung tissues were collected. Cells in BAL fluids were counted, and specific cell numbers were calculated after May-Giemsa staining of Cytospin preparations. Immunofluorescence microscopy was performed on membrane-permeabilized and non-permeabilized lung tissues. For staining of lung tissues by staining of H&E and periodic acid-Schiff (PAS), lung tissues were fixed with formalin and embedded in paraffin. For measurement of cytokine levels in lung tissues, lung homogenates were prepared (Oyoshi et al., Immunol. 120:303 (2007)) and cytokines quantified by ELISA. HRF in lung homogenates and plasma was SDS-PAGE and immunoblotting with anti-HRF Ab (Santa Cruz Biotechnology).
Asthma is a type 2 helper T cell-driven, chronic inflammatory lung disease (Wills-Karp, Annu Rev Immunol 17, 255 (1999)). To study HRF involvement in allergic airway inflammation, an airway inflammation model was utilized, in which mast cells are implicated in amplifying antigen-dependent chronic inflammation (Williams, et al., J Exp Med 192, 455 (Aug. 7, 2000)). C57BL/6 mice were first sensitized with OVA (10 μg) at days 0, 7, 14, 21, 28 and 35. At days 40, 43 and 46, mice were intranasally challenged with OVA (20 μg) or PBS. Some mice were intranasally pretreated with GST or GST-N19 (400 μg) before every OVA challenge. Twenty-four hours after the last challenge, mice were sacrificed and BAL fluids and lung tissues were collected. Lung tissues were homogenized.

HRF/IgE binding = test: Competition ELISA of IgE binding to GST-mHRF-coated wells; design: species or system mouse; settings: competitor incubated 2 hours
Experimental: To identify an inhibitor of HRF/Ig interactions to dissect the extracellular function (═HRF function as a cytokine) separate from the intracellular functions in vivo settings, the major Ig-interacting HRF sequence was studied as a specific inhibitor of HRF/Ig interactions. IgE molecules were incubated in GST-mHRF-coated wells in the presence or absence (−) of the indicated concentrations of competitors, GST-N19, GST-mHRF or mHRF-His6 for 2 hours. After incubation, bound-IgE was detected by incubation with biotinylated anti-mouse IgE mAb, followed by streptavidin-HRP. […] By contrast, none of the shorter mHRF peptides tested (residues 1-6, 1-12, 5-19, and 9-19) inhibited HRF/IgE binding. GST-N19 inhibited HRF/IgG binding as well.

IgE-sensitized mice = test: Passive cutaneous anaphylaxis induced by mHRF in IgE-sensitized ears; format: in vivo, mouse; settings: 8 hours after injection in IgE-sensitized ears
Experimental: Mouse ears were first sensitized with 0.5 μg anti-TNP (C38-2 in the right ear and C48-2 in the left ear) IgE. After 24 hours, Evans' blue dye was intravenously (i.v.) injected, and TNP26-BSA (Ag: 0.1 μg) or mHRF-His6 (10 μg) were immediately injected into the ears. The acute (30 minute) reactions were analyzed by measurement of Evans' blue dye leakage. The ear thickness was measured using a micrometer (Mitutoyo) at 0.5, 1, 2, 4, 6, 8, 12, and 24 hours after mHRF-His6challenge. As a negative control, saline was injected into the ears in place of antigen or HRF challenge. IgG-mediated response was performed by sensitization with 2 μg IgG1 (in place of anti-TNP IgE) and challenge with anti-mouse IgG1 Ab (0.6 μg: Southern Biotechnology, in place of TNP26-BSA). Engraftmanet of Kit^W-sh/W-sh mice with BMMCs was performed 6 weeks before study (Nakano, T., et al. J Exp Med 162:1025-1043 (1985)). In some studies, mice were sensitized and stimulated as described above but without Evans blue.
Here, mice were sensitized with the IgE. […] After 30 minutes, mice were sacrificed, and the amount of Evans blue dye leaked from the ears measured. […]
mHRF-His6 (H) was injected in IgE-sensitized ears and LPR was analyzed by measurement of ear thickness at 8 hours after injection. […]
IGELa2 IgE was intradermally injected into ears. […] Eight hours after injection, the ear thickness was measured (FIG. 7).

peritoneal mast cells = test: β-hexosaminidase release (degranulation); format: cell-based, mouse; settings: cells sensitized with HRF-reactive IgE, 40 minutes
Experimental: Mast cells were sensitized with 0.5 μg/ml IgE overnight. The mast cells were stimulated with TNP26-BSA or mHRF-His6 for 40 minutes in Tyrode's buffer. The amount of β-hexosaminidase (β-hex) in both supernatants and cell pellets was measured. The percentage of β-hex release was calculated as follows: % release=β-hex in supernatants/β-hex in supernatants+β-hex in cell pellets)
These hypersensitivity reactions appear to be dependent on mast cells, as the reactions were abolished in mast cell-deficient Kit^W-sh/W-sh mice and restored in Kit^W-sh/W-sh mice engrafted with WT BMMCs (FIG. 6A). […] Therefore, HRF and HRF-reactive IgE can induce anaphylactic responses in a mast cell- and FcεRI-dependent manner. Consistent with this, peritoneal mast cells sensitized with the HRF-reactive, but not the HRF-nonreactive, IgE were activated upon stimulation with HRF (FIG. 6D). After 40 minutes, both supernatants and cell pellets were collected and β-hexosaminidase release was analyzed (FIG. 6D).

Unimmunized mice = test: Intranasal HRF in naïve mice, BAL differential cell counting; format: in vivo, mouse; settings: for Lung inflammation: naïve C57BL/6 (WT) mice, 40 μg intranasally three times
Experimental: In light of the presence of HRF-reactive IgG in naïve mice and recent studies reporting the role of mast cells in the initiation of adaptive immune responses (Galli, et al., Nat Immunol 6, 135 (February, 2005)), the effect of HRF on naïve mice was assessed. Unimmunized C57BL/6 (WT), μMT, and FcRγ^−/− mice (n=5 per cohort) were treated intranasally with 40 μg mHRF-His6 three times every third day. PBS served as a negative control. BAL procedures were conducted 24 hours after the last HRF administration. Differential cell counting was performed on cytospin preparations stained with May-Giemsa. […] FcRγ is shared by multiple Fc receptors including FcεRI.

IgE = test: ELISA with monomeric and dimeric HRF-His6 as capturing agent; format: binding, mouse
Experimental: Monomeric and dimeric HRF-His6 proteins purified by HPLC were coated onto plastic wells. After blocking, 206 (HRF-nonreactive) and IGELa2 (HRFreactive) IgEs were incubated. Bound IgEs were detected by incubation with biotin-conjugated anti-mouse IgE antibody, followed by incubation with horseradish peroxidase-conjugated streptavidin. The absorbance at 450 nm was measured after development of the color. […] The dimerizing ability of HRF with multiple Ig-binding sites strongly indicates the potential of HRF to crosslink Ig-bound Fc receptors.

Molecule: N19 peptide: synthetic non-fusion N19 peptide, N-terminal 19 residue peptide of HRF (MIIYRDLISHDELFSDIYK; UniProt P63028 1-19, looked up, fragment)
Airway inflammation (C57BL/6 mice): abrogated

Molecule: residues 1-6: shorter mHRF peptide, residues 1-6 (MIIYRD; UniProt P63028 1-6, looked up, fragment)
Inhibition of IgE binding to immobilized GST-mHRF (HRF/IgE binding): none

Molecule: residues 5-19: shorter mHRF peptide, residues 5-19 (RDLISHDELFSDIYK; UniProt P63028 5-19, looked up, fragment)
Inhibition of IgE binding to immobilized GST-mHRF (HRF/IgE binding): none

B1: mHRF-His6: C-terminally hexahistidine-tagged recombinant mouse histamine releasing factor (protein)
chain: MIIYRDLISHDELFSDIYKIREIADGLCLEVEGKMVSRTEGAIDDSLIGGNASAEGPEGEGTESTVVTGVDIVMNHHLQETSFTKEAYKKYIKDYMKSLKGKLEEQKPERVKPFMTGAAEQIKHILANFNNYQFFIGENMNPDGMVALLDYREDGVTPFMIFFKDGLEMEKCHHHHHH
Late-phase reaction (LPR), ear swelling (IgE-sensitized mice): as high as that induced by antigen | Mast cell activation (β-hexosaminidase release) (peritoneal mast cells): activated | HRF effects (lung inflammation) (Unimmunized mice; B cell-deficient (μMT) or FcRγ−/− mice): not observed | Lung inflammation (Unimmunized mice): induced weak lung inflammation | Lung inflammation (Unimmunized mice; listed as HRF): weak lung inflammation is induced | HRF-induced lung inflammation (Unimmunized mice; naïve FcεRIα−/− mice): abrogated or reduced | Neutrophils and eosinophils in BAL fluids (Unimmunized mice; naïve WT mice): increased | Binding to IgE (IgE; dimeric form as capturing agent): can bind | Binding to IgE (IgE; monomeric form as capturing agent): can bind

Further lines, results first:

Inhibition of IgE binding to immobilized GST-mHRF (HRF/IgE binding): none
Molecule: residues 1-12: shorter mHRF peptide, residues 1-12 (MIIYRDLISHDE; UniProt P63028 1-12, looked up, fragment)

Inhibition of IgE binding to immobilized GST-mHRF (HRF/IgE binding): none
Molecule: residues 9-19: shorter mHRF peptide, residues 9-19 (SHDELFSDIYK; UniProt P63028 9-19, looked up, fragment)
